Reference: publication PMC2845276 (The EMBO Journal, 2010)

Tests used:
[1] = biological target: talin1 F0 domain (murine) (UniProt P26039)
GST-talin head ΔF1 loop = GST-talin head ΔF1 loop (mouse, UniProt P26039 1-433, lacking residues 133–165); experiment: pull-down
GST-talin head = GST-talin head (mouse, UniProt P26039 1-433); experiment: pull-down

Chain of GMP.PNP-Rap1 (P62834 whole entry): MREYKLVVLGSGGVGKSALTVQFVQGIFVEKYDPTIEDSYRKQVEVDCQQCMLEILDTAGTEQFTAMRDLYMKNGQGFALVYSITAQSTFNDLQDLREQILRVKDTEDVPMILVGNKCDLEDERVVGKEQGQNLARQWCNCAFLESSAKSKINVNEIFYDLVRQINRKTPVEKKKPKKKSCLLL

Kd [1] | Kd (GST-talin head ΔF1 loop) | Kd (GST-talin head) | Molecule
140000 nM |  |  | GMP.PNP-Rap1 (from UniProt P62834 1-184) (natural protein)
 | 99 ± 20 nM | 124 ± 19 nM | KLLMIIHDRREFAKFEKEKMNAKWDTGENPIYKSAVTTVVNPKYEGK (domain or fragment, UniProt P05556-1 752-798, looked up) [β1A-integrin cytoplasmic tail (recombinant model protein)]
